Test results taken from publication PMC10149931, “Wiskott-Aldrich syndrome protein interacts and inhibits diacylglycerol kinase alpha promoting IL-2 induction” (Frontiers in Immunology, 2023).

Target: myc-DGKα (UniProt P23743 1-735)
Experiment: cell-based or functional assay

Chain of myc-DGKα (P23743 whole entry): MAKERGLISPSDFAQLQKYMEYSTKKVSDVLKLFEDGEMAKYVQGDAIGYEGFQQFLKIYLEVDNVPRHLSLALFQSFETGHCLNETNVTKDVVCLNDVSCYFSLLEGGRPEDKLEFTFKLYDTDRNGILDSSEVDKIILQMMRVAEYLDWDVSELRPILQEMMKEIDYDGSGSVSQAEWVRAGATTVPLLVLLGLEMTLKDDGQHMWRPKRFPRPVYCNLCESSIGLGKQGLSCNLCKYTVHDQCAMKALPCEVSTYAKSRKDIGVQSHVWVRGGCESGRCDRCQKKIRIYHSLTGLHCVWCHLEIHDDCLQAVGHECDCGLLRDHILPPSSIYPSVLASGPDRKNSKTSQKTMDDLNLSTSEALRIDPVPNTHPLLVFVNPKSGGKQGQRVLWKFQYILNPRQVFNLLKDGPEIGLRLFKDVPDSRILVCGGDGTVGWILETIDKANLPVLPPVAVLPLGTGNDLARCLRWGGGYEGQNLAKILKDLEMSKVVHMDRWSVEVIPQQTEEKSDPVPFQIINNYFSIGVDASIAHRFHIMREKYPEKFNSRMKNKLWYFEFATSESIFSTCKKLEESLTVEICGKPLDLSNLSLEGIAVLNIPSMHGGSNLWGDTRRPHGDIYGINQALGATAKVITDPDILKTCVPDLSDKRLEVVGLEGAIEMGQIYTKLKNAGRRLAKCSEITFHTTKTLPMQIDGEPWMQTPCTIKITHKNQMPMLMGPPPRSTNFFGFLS

B1: FLAG-WASp (natural protein, UniProt P42768 1-502, looked up)
chain: MSGGPMGGRPGGRGAPAVQQNIPSTLLQDHENQRLFEMLGRKCLTLATAVVQLYLALPPGAEHWTKEHCGAVCFVKDNPQKSYFIRLYGLQAGRLLWEQELYSQLVYSTPTPFFHTFAGDDCQAGLNFADEDEAQAFRALVQEKIQKRNQRQSGDRRQLPPPPTPANEERRGGLPPLPLHPGGDQGGPPVGPLSLGLATVDIQNPDITSSRYRGLPAPGPSPADKKRSGKKKISKADIGAPSGFKHVSHVGWDPQNGFDVNNLDPDLRSLFSRAGISEAQLTDAETSKLIYDFIEDQGGLEAVRQEMRRQEPLPPPPPPSRGGNQLPRPPIVGGNKGRSGPLPPVPLGIAPPPPTPRGPPPPGRGGPPPPPPPATGRSGPLPPPPPGAGGPPMPPPPPPPPPPPSSGNGPAPPPLPPALVPAGGLAPGGGRGALLDQIRQGIQLNKTPGAPESSALQPPPQSSEGLVGALMHVMQKRSRAIHSSDEGEDQAGDEDEDDEWDD
decrease in DGK activity of total homogenates of 293T cells co-transfected with myc-DGKα and FLAG-WASp, against myc-DGKα with GFP control vector: ~50%
